From the DeepSol protein solubility set

Assay: soluble on expression in E. coli; label from the status in PepcDB or PDB records

Sequence | soluble on expression in E. coli
MAARDPEATKARIFEAAVAEFARHGIAGARIDRIAAEARANKQLIYAYYGNKGELFASVLEKKMLDLAISVPVDPDDIEGWIDRLLDYHAAHPELLRLLFWEGMEYGTAELPHEAERQEHYARKVAAVRDGQERGVITDAIPAPDLLFLLVAMANWAVVVPQMKRILVGGGDAGTDGLRDSIKKAARRIVDR | not soluble
LYLEQSDIEGHIGVFGSTGSGKTTTLATIACGAAEAGLPVVVADWHGEYQRLVGGGGCRPRVIDPGREGGVNPLSLGWDYSVKTALLASALGLTEPQHYMLLKLLEEHEPRSLIELHSMVEDVEENSRWDREVKRGLMRRLGPLASRAGRSLVEGEGPPIGGRGLYIVDTGSIGNVQLRKTYSILLAAYLQYKAYSRELGPLLLVVDEAHNMFDGEESFPSIMMAESRKFGLYIALATQNPHLLPLRAVSNTNTKIVHSLRWWRDLESIASALSLPRETASKLPHLGRGEAVVYAPSLGYPVLAKIVPPE | not soluble
MTHAPTTTPLRTAAKLLAAGAAALTLNSCAYDGIKVIVINMFQGEAQPFIDRYDLKEKVYIAGLSPDAPNLLCNYDGICQVTTGMGYANAAATLSALLYRSKLDLTQTYFVIAGIAGIDPGQGTVGSAAWARYAVDYGLSHEIDAREMPAAWPYGYFGIGTKGPGEKPPMNYRTEVFRLNEALLQRAYALSKPVTLEDSPEAIAFRKHYAYAPANQPPAVIQCDVASADTWWAGRNLGQRARDWTKTMTDGKGTYCTTAQEDNATLEVLARGARAGKVDFSRVALLRTGSDFDRPYDGQSAADGLVNYAQQGGFVPATHNLVNAAKPLLDDIVLRWPQWAQGVPANLEHHHHHH | not soluble
MPRKLLEERSTGSATKWLREEEKIEKKSRADQLKIKFMQTRDNSDINSIFSEPPSEFSVLCDDDDCDKGSVVSSTLTTSIRKTFSSFRFDENQRKKGTRKRRSSEKGRICRRKVHIILARNMLRKENELYKKDAEYCQTPRAVADGCSFSTLPTI | not soluble
DVQLQESGPGLVKPSQSLSLTCTVTGYSITNNYAWNWIRQFPGNKLEWMGYINYSGTTSYNPSLKSRISITRDTSKNQFFLQLNSVTTEDTATYFCVRGYDYFAMDYWGQGTSVTVSSAKTTPPSVYPLAPGSAAQTNSMVTLGCLVKGYFPEPVTVTWNSGSLSSGVHTFPAVLQSDLYTLSSSVTVPSSTWPSETVTCNVAHPASSTKVDKKIVPRDCG | soluble
MVMSSEGGEDRWVFGYGSLMWRPGFPFIDRRTAVLHGRRRAFCIYSVHHRGTYERPGLVLGLAPGGSVRGMAYRVAAAEWEGVYAYLREREQPTETYFETWREVKVDGGDKAPALVFLSDMKHSQWAGDLTLEQQAALIAGAVGLSGPNIDYLRDLVMHLHEDGVRDHAMEKLLKMVEAREAALEHHHHHH | not soluble
MRALVVGAGIGGLVAARALRRAGLEVLVLEAHTYPGGLAGTFTHRGYRFDAGATLLSGFAPGGPMALVAEALGVCLPVEPFPEGFPLMEVHLPRGPLLRPVGREAEREAQRDFFGPRVLPFWRWQEERAKALLRLAPRLPWPPEREELLRLLALLPELFPLLPDLFLKAAHRAPQDPHFLRFLDAQLLIASQAEAKRTYALYAALALDLPHMGPALVPGGVGRVAEALAEGLPVRYKARAERLLLGEGRALAVEVAYGGRRRGEREVVEADLFVLDVPLAPLLGLPLKVPEDAWGAFVVHGVLPFRAPPPYFRQNAREKPFAFLSLRPEGEKTAFALSLHTPLALWEGLSPEEYGRLKARWGEMALSLGEALLPGLREAELLLFGTPRTYARFAGRAWVGGFPQTHPFRFPRVRPFPNVFRVGEGVFPGQSVPAAALSGLRAARLALEALGLAGSGGEARPSFPPFPLEHHHHHH | not soluble
MAEPWGNELASAAARGDLEQLTSLLQNNVNVNAQNGFGRTALQVMKLGNPEIARRLLLRGANPDLKDRTGNAVIHDAARAGFLDTLQTLLEFQADVNIEDNEGNLPLHLAAKEGHLRVVEFLVKHTASNVGHRNHKGDTACDLARLYGRNEVVSLMQANGAGGATNLQ | soluble
MPRPDNVPVYTMRQLAAFVAVAETGTISGAAERMHLSQSALSAAVTDLEKALKAQLCVRRRARGVQLTPTGEAVLSRARALLQQAGELQSDASGEGGVVAGPIAVGCYPALGPTILPSMLYAFTAEYPRASVEFREDTQNRLRTQLEGGELDVAIVYDLDLSPEWQTVPLMTREPMVVLGAEHPLAGVDGPVRLADLAEHPMVLLDAPPSTNHAMDVCREAGFAPRVAYRTANFETARAFVGRGLGWTLLLQRPRVDVTYEGLPVVVKPIAEPKPASVAVVVAWHQEATLSRVARAFIRFVTA | not soluble
MGSDKIHHHHHHVTITNPLPIDRNGEMVEISMAEITGKLQLPDTAQVIVLDENGLEVPYQITYDDMLIFPASVKGDASAVYTIAEGTPQPVDVVACGRQYPERLDDVAWENDRAAYRAYGPALQEKGERAFGYDIWTKSVSEPVVEDRYDGDLNRGISYHVDHGNGMDCYAVGPTLGGGTAALFPDSTIVYPYCYKDCEILDNGPLRFTAKLVYNPLVVKGDSSVIETRIISLDKGSQLNKTVVSFDNLQEITPVVTGIVLHKQNPMGYSFDADAGYIAYADSTENAANNNGVIYIGAVFPATVKGAFAQVFSEKERKERGDALGHVLAVNDYEPGAEYIYYWGSGWSKYGFEADTDWNKYLEEYARKIRNPLAVAIK | not soluble
MLIYHNCTTDRTMRKMRHEWGTFGIRIADAFSTMNIDVFDKGEKYNGNEKVELTTTVKNYKPKNNTRKWPAVEAKYLGVVYDNHNKLPKNCEGQKVEVQMMKIDKEQYGWVITDILNE | not soluble
MADRKLVVVFGATGAQGGSVARALLEDGTFRIRVVTRNPEQRAAKELKQQGAEVVRGDQDDAASMELALAGAHATFIVTNYWETCSQDREVQQPHQWDQVFKQGKLLADLAKRLGLHYVVYSGLENIRKLTAGKLAAGHFDGKGEVEEYFRDIGVPMTSVRLPCYFENLLSYFLPQKAADGKSFLLDLPMGDVPMDGMSVSDLGPVVLSLLKKPEEYVGQNIGLSTCRHTAEEYAALLSKHTGKAVHHAKTTPEDYEKLGFQGAQDLANMFRFYTLKPDRNIHLTLRLNPKAQTLDQWLEQHKGDFAQL | soluble
GIDPFTMLHIEFITDLGAKVTVDVESADKLLDVQRQYGRLGWTSGEVPVGGYQFPLENEPDFDWSLIGARKWTNPEGEEMILHRGHAYRRRELEAVDSRKMKLPAAVKYSRGAKNTDPEHVREKADGEFEYVTLAIFRGGKRQERYAVPGSNRPQAGAPARSAATRAQGARPGAVAVQDEETPF | soluble
MSLARLKVKVWGEYACFSRPEFKVERVSYPVPTPSAARGLLEAIFWKPEFRYEVRRIGVLRLGTPFALLRNEVGNRMGAKPFFVEDARQQRTSLVLKDVAYLVEADMVLRPHATDPLPKYLEQFERRLKKGQYHHTPYLGTREFPAYFSPPDGEVPDGGLNLDLGPMLFDLAFVEDPGRPELTFKRPGRGEVQGYALPLFFHARIREGWLEVPAEKYQELYRLEEGHAKGAEGHHHHHH | soluble
MSLAIGRILIIDDENINAETMMDTLEDVNYHVVLAANANQAKTIVEDQIFDLVMMDVWMPAQDGMSLLEEWTQSGFSTPIVMMSGHAEHQDVVKAIKLGAVDFLEKPLHDILPLVRKILSEQVLEKSEHTINGIEFNAPLKEARNIFEVQYFNHHLQENKHNIAKVAILAGLERTTLYRKLKDLGIDKEGHHHHHH | soluble
MGSMSMNAEQTVAELIARSNRLGSDPKNTNYAGGNTSAKGTDTDPVTGQPVELLWVKGSGGDLGTLTENGLAVLRLDRMRALVDVYPGVEREDEMVAAFDYCLHGRGGAAPSIDTAMHGLVDAAHVDHLHPDSGIALATAADGEALTKQIFGDRVVWVPWRRPGFQLGLDIADIKRRNPQAIGTILGGHGITAWGSTSAEAEAHSLEIIETAERYIAENGRPEPFLEHHHHHH | not soluble
MAHHHHHHMDFVKELKSSQDYMNNELTYGAHNYDPIPVVLKRGKGVFVYDIEDRRYYDFLSAYSSVNQGHCHPDILNAMINQAKKLTICSRAFFSDSLGVCERYLTNLFGYDKVLMMNTGAEASETAYKLCRKWGYEVKKIPENSAKIIVCNNNFSGRTLGCVSASTDKKCKNNFGPFVPNFLKVPYDDLEALEKELQDPNVCAFIVEPVQGEAGVIVPSDSYFPGVASLCKKYNVLFVADEVQTGLGRTGKLLCTHHYGVKPDVILLGKALSGGHYPISAILANDDVMLVLKPGEHGSTYGGNPLAAAICVEALKVLINEKLCENADKLGAPFLQNLKEQLKDSKVVREVRGKGLLCAIEFKNDLVNVWDICLKFKENGLITRSVHDKTVRLTPPLCITKEQLDECTEIIVKTVKFFDDNL | soluble
MSLGTRAPSFTPERSVEISGGEDGYFQARGTISGPLGETLAGRLSAYRTRDDGYVKNLHDGNTLNGGARQGFRGQLLFKPNDDFSLRWIGDYNEEDSDNGVLTLFSSGPTVNGVNRYEQRAAAAGATLVDGHRRKVNFDSDQQVTVFQGGTSVEANWKLANDFTLTSISAYRWWDFTPRNDDGLDVPAAYNAGVSVRDKQWSQEIRLASPSGGFFDYVLGAYYFGQDLDNKSFTDYGPRADIWNGTPAGALSDVSTRGRGHIDTDSYALFAQGTWHLTERLDLTAGVRGTYEEKSAWVEREGHHHHHH | soluble
MGSDKIHHHHHHMDLRQIRTFVYIAELRSYTRAAAFLHVSQPALSRQMRLLEEELRLKLFLRHGHGVELTNEGVAFFARCRDVLSEFEQLRHDFRSTGANKAVMGLVSVGLPAPATRFATPKLLHAARKSYPGLSVRFAEGFSALLHEWLLSGSLDLAVLFGSNTPKLLTSLPVLVEDLVAISAATKTSRKKNFVNAQDLQNTPLILPHRPHILRELIDSLHLKKVEILEVDSTSLMIELARVGDGTTILPAGSAEQSIRAGHVVALPIINPTLSWQVSICYSSVRPLSVGARVVLDLMRREIAQKVTSGEWLSGRLIRPGTEMTEGLDAAP | not soluble
MGSDKIHHHHHHMQHHKVAIIGAGAAGIGMAITLKDFGITDVIILEKGTVGHSFKHWPKSTRTITPSFTSNGFGMPDMNAISMDTSPAFTFNEEHISGETYAEYLQVVANHYELNIFENTVVTNISADDAYYTIATTTETYHADYIFVATGDYNFPKKPFKYGIHYSEIEDFDNFNKGQYVVIGGNESGFDAAYQLAKNGSDIALYTSTTGLNDPDADPSVRLSPYTRQRLGNVIKQGARIEMNVHYTVKDIDFNNGQYHISFDSGQSVHTPHEPILATGFDATKNPIVQQLFVTTNQDIKLTTHDESTRYPNIFMIGATVENDNAKLCYIYKFRARFAVLAHLLTQREGLPAKQEVIENYQKNQMYLDDYSCCEVSCTC | not soluble
METTHSLTTDNAPTEDQPILSVTDLHMVSGTHLPELKIYAGLSLVHCGRENSATTLSMTLAGRMKPISGTIELKVQDSDKVLTTPRQLHKAVALAGVPELDSLERLVPVTAAVREQLAWSQPWYRRVPRDVTKSETFINAAKLLDLPNSKEFARQSIGDLDPLTRFRLRIALALIARPHTDLLIVDDIDQIRSLRLRADLLRELKNIAASIPVVAMSANDDVDKIADHEIHVAGALQRKQKAKA | not soluble
MVYFYESKPTEYSTPYQIVMGKDKFENDLLIKWSYRELNYVWFHADKYSSGHVYLKLRPNEKTIDDIPQEVICDCLQLCKSESIQGNKMPQCTILITPWHNLRKNRYMNPGEVSFKSLRQCRKMECGARDNKILNRLAKTRVELFNNVEATLNEAKKTKNGDFFVNYIESNRSNLIEEEKLRKVAKKNQKKKNKQSKDEVTDDMQLEV | not soluble
GSMSTKNFRVSDGDWICPDKKCGNVNFARRTSCDRCGREKTTGPI | soluble
